Publication PMC11615384, “Frequent transitions in self-assembly across the evolution of a central metabolic enzyme” (Nature Communications, 2024)
Changes are numbered by the printed parent chain. In names and notes the source's numbering stands. Several values for one entry are separate records, joined by “and”; a condition that tells them apart may be missing. Equal entries are not always repeated.

How the values were obtained:
[1] = target: non-mitochondrial citrate synthase (nmCS) of Chlamydomonas reinhardtii (Chlamydomonas reinhardtii); experiment: mass photometry; self-assembly of the purified protein in solution; final concentration 12.5 to 50 nM; PBS or 20 mM Tris, 200 mM NaCl pH 7.5; OneMP or TwoMP
[2] = target: T1, CS from A. comosus (nmCS) (Ananas comosus, UniProt A0A6P5F0R3); experiment: mass photometry, oligomeric state shift; assay type: binding; conditions: 10 min preincubation with high acetyl-CoA; octamers shift to mix of hexamers and octamers
T1 construct: gene LOC109710921; non-mitochondrial CS with C-terminal LE-HHHHHH tag, expressed in E. coli BL21(DE3); octamer (ring of four dimers); C-terminus extends to residue 513
T1 sequence (A0A6P5F0R3 entry or part of it): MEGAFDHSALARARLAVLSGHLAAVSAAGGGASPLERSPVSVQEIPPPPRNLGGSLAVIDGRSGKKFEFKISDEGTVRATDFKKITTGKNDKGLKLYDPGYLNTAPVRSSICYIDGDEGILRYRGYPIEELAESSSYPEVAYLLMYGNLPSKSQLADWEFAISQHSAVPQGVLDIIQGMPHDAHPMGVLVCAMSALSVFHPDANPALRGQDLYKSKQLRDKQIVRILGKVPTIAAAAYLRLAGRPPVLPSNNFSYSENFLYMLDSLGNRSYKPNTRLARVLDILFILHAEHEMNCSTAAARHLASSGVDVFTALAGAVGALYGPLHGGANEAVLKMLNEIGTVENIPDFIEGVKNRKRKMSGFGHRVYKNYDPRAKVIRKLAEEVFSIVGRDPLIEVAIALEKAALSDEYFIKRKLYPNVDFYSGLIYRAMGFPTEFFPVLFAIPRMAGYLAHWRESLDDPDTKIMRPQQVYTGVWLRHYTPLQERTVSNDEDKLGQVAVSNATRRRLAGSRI

[3] = target: CS from a Myxococcota species (a Myxococcota species); experiment: mass photometry; self-assembly of the purified protein in solution; final concentration 12.5 to 50 nM; PBS or 20 mM Tris, 200 mM NaCl pH 7.5; OneMP or TwoMP
[4] = target: citrate synthase (type III CS) from M. sulfidovorans (M. sulfidovorans); experiment: as above
[5] = target: citrate synthase from M. sulfidovorans W150A (M. sulfidovorans); experiment: as above
[6] = target: non-mitochondrial citrate synthase (nmCS) of Ananas comosus (Ananas comosus); experiment: mass photometry; with high quantities of acetyl-CoA: prediluted protein (2 µM) incubated for 10 min with the substrate, same concentration in the buffer of the gasket
[7] = target: non-mitochondrial citrate synthase (nmCS) of Ananas comosus (Ananas comosus); experiment: mass photometry; self-assembly of the purified protein in solution; final concentration 12.5 to 50 nM; PBS or 20 mM Tris, 200 mM NaCl pH 7.5; OneMP or TwoMP
[8] = target: type II citrate synthase of F. taffensis (F. taffensis); experiment: as above
[9] = target: type II citrate synthase of C. woesi (C. woesi); experiment: as above
[10] = target: non-mitochondrial citrate synthase (nmCS) of C. fasciculata (C. fasciculata); experiment: as above
[11] = target: the molecule itself; experiment: as above
purified protein [12] = substrate: O=C(O)CC(=O)C(=O)O; experiment: purified protein; assay type: biochemical, Deinococcus pimensis; conditions: 50 mM Tris pH 7.5, 10 mM KCl, 25 °C, 25 nM enzyme, unseparated sample, varied substrate not named in main text
purified protein [13] = substrate: O=C(O)CC(=O)C(=O)O; experiment: purified protein; assay type: biochemical, Methylophaga sulfidovorans; conditions: 50 mM Tris pH 7.5, 10 mM KCl, 25 °C, 25 nM enzyme, varied substrate not named in main text

non-mitochondrial citrate synthase (nmCS) of Chlamydomonas reinhardtii (enzyme)
stoichiometry N [1]: 2

CC(=O)SCCNC(=O)CCNC(=O)[C@H](O)C(C)(C)COP(=O)(O)OP(=O)(O)OC[C@H]1O[C@@H](n2cnc3c(N)ncnc32)[C@H](O)[C@@H]1OP(=O)(O)O [acetyl-CoA]
mass photometry, oligomeric state shift [2]: shift the oligomeric state of the CS from A. comosus from octamers

CS from a Myxococcota species (enzyme)
stoichiometry N [3]: 2

citrate synthase (type III CS) from M. sulfidovorans (enzyme)
stoichiometry N [4]: 6

citrate synthase from M. sulfidovorans W150A (enzyme)
stoichiometry N [5]: 2

non-mitochondrial citrate synthase (nmCS) of Ananas comosus (enzyme)
stoichiometry N [6]: 6 and 8 | stoichiometry N [7]: 8

type II citrate synthase of F. taffensis (enzyme)
stoichiometry N [8]: 2

type II citrate synthase of C. woesi (enzyme)
stoichiometry N [9]: 2

non-mitochondrial citrate synthase (nmCS) of C. fasciculata (enzyme)
stoichiometry N [10]: 6

B1: non-mitochondrial citrate synthase (nmCS) of P. olsenii (enzyme)
chain: MDRLNTVAAHVAPTLTITDNRSGKKIDVKVKDGTIRATDLKQLGIQTYDPGYMNTTCCVSRISFIDGNRGVLRYRGYPIEQLAQDSSFTEVAFLLQYGELPTRGQLTQWEQDLMRHSMLHQDVATLTSAFRYDAHPMGMFVSAMAALGTLHPETNPALTSQNIYKDKAVRNKEIARILGSATTLAAMAYRHRMGRPFNTPNSDLGYTENFLYMLDVSHEGTSYRPHPKLVKALDVLFVLHAEHELNCSTSAMRHLTSSNVDVYTACAAAAGALYGPRHGGANEAVLRMLERIGSIENVPTFVDKVKQRKELLMGFGHRVYKHYDPRATIVRKIAEDVFEICGREPLIEVAMDLERIALSDPYFKDRKLYPNVDFYSGLIYKAMGFPTDMFPILFTVPRLAGWLAHWSEWIDDPENRIYRPFQVYKGYDKRDYVQVDERSEKVHSKELTVKRSAFNRRRDASLQSAAADRSEYEWIKD
stoichiometry N [11]: 6

B2: A. comosus CS Δ487-513, variant in which the extended C-terminus was deleted (domain or fragment)
chain: MEGAFDHSALARARLAVLSGHLAAVSAAGGGASPLERSPVSVQEIPPPPRNLGGSLAVIDGRSGKKFEFKISDEGTVRATDFKKITTGKNDKGLKLYDPGYLNTAPVRSSICYIDGDEGILRYRGYPIEELAESSSYPEVAYLLMYGNLPSKSQLADWEFAISQHSAVPQGVLDIIQGMPHDAHPMGVLVCAMSALSVFHPDANPALRGQDLYKSKQLRDKQIVRILGKVPTIAAAAYLRLAGRPPVLPSNNFSYSENFLYMLDSLGNRSYKPNTRLARVLDILFILHAEHEMNCSTAAARHLASSGVDVFTALAGAVGALYGPLHGGANEAVLKMLNEIGTVENIPDFIEGVKNRKRKMSGFGHRVYKNYDPRAKVIRKLAEEVFSIVGRDPLIEVAIALEKAALSDEYFIKRKLYPNVDFYSGLIYRAMGFPTEFFPVLFAIPRMAGYLAHWRESLDDPDTKIMRPQQVYTGVWLRHYTPLQERLEHHHHHH
stoichiometry N [11]: 2

B3: CS from D. pimensis (Dp) (Deinococcus pimensis) (protein)
chain: MTTTIAKGLEGVLFTETKLTFINGTEGVLTHLGIPIQEWAEKSTFEELSFALLHGKLPTREELAAFDADLKANRAVPAELITAIRAYPRDVHPMQALRTAASHLGLLDADAEDTSAEGRYRIGVRMIAQFSTIIAAIARAQDGQDPVEPRADLTHAGNFLYMLNGQEPSAEQARLFDIALILHADHGMNASTFTAIATASTLSDMYSSVVSAIGALKGPLHGGANEAVMDMLDEIGTVDAAVPFITQKLDNKEKIMGVGHRVYKYFDPRSRVLRDYAAHVSEKQGKSHYYSILETIEKEIVERLGGKGIYPNVDFYSGVVYSDLGIKKSFFTPIFALARISGWVASVTEYTANNRLLRPDAVYVGARDQHYVEIDERK
notes: full-length with C-terminal LE-HHHHHH tag, expressed in E. coli BL21(DE3); type I CS, polydisperse oligomer (dimers to >=8 subunits)
Km (purified protein [12]): 25.4 ± 3.1 µM | kcat (purified protein [12]): 36.6 ± 1.1 s⁻¹

B4: CS from M. sulfidovorans (type III) (Methylophaga sulfidovorans) (protein)
chain: MSDFLPGLEGVPATKSAISFIDGEKGILSYRGYPLETLAENSTFEETTLLLLDGELPTKKALNDFSQQLKDNYRIKYHIRQMMRHFPHTGHPMDMLQTAVSSLGMFYPGTECLTDANSCEDLDYVRNMTVNIIAQMAPLVAMWEHIRNGWDPVNPKHDLSVAENLLYMFNGEEPDPLMAKIMDVCLILHAEHTLNASTFAALVAGSTLATPYSVISAAIGTLSGPLHGGANQRVVGMLQEIGSPKNVESWVDEKLKNKEVIWGMGHREYKVKDPRATILHKLVEQLVAERGGHLDDMFDTALKLEEVCADRLGHKGVYPNVDFYSGILYSEMGIPEDEFTALFAVARSAGWLAHWREQISDNRIYRPTQIYVGSDMRDYTPIEER
notes: full-length with C-terminal LE-HHHHHH tag, expressed in E. coli BL21(DE3); type III CS, hexamer (three dimers)
Km (purified protein [13]): 50.5 ± 5.2 µM | kcat (purified protein [13]): 33.3 ± 1.8 s⁻¹

B5: CS from M. sulfidovorans (type III) (Methylophaga sulfidovorans; W150A) (protein)
chain: B4 chain with W150A
notes: as for B4
Km (purified protein [13]; dimeric variant): 36.7 ± 5.7 µM | kcat (purified protein [13]; dimeric variant): 26.7 ± 1.1 s⁻¹
